Experiment [1] concerns the target JR-FL Env gp160 on pseudovirus (HIV-1 (JR-FL)) (UniProt Q75760).
Experiment [2] shares this target. The source holds these as a separate data set.

B1: DH501 IgG1 (antibody, V domains shown)
VH: QVTLKEFGPALVKPTQPLTLTCSFSGFSLRSSDTAVVWIRQPPGKALEWLAAIYWDDVEHINPSLKSRLSISKDSPNSLVVLTMANMDPVDTATYYCGRVRFVSGGYYTDRIDSWGPGLLVTVSS
VL: QSVLTQPPSVSGAPGQRVTISCAGTKSNIGDCSVSWYQQLPGATPRLLIYQNNNRPSGVSDRFSGSKSGTSASLAITGLQTEDEADYFCLSYDTSFSGWRFGGGTRLTVL
In experiment [1], B1 yielded an IC50 of neutralisation of kifunensine-treated (Man9GlcNAc2-enriched) JR-FL pseudovirus, TZM-bl cells of 0.09 µg/mL.

B2: DH501 H/UCA L chimeric antibody (antibody, V domains shown)
VH: QVTLKEFGPALVKPTQPLTLTCSFSGFSLRSSDTAVVWIRQPPGKALEWLAAIYWDDVEHINPSLKSRLSISKDSPNSLVVLTMANMDPVDTATYYCGRVRFVSGGYYTDRIDSWGPGLLVTVSS
VL: QSVLTQPPSVSGAPGQRVTISCTGSSSNIGGYYVSWYQQLPGTTPKLLIYQDNKRPSGVSDRFSGSKSGTSASLTITGLQTEDEADYYCLSYDTSFSGWRFGGGTRLTVL
Turning to B2, in experiment [1], the IC50 of neutralisation of kifunensine-treated (Man9GlcNAc2-enriched) JR-FL pseudovirus, TZM-bl cells was determined as 0.06 µg/mL.

B3: DH501 with HFWR4 somatic mutations reverted to the UCA sequence (antibody, V domains shown)
VH: QVTLKEFGPALVKPTQPLTLTCSFSGFSLRSSDTAVVWIRQPPGKALEWLAAIYWDDVEHINPSLKSRLSISKDSPNSLVVLTMANMDPVDTATYYCGRVRFVSGGYYTDRIDSWGQGVLVTVSS
VL: QSVLTQPPSVSGAPGQRVTISCAGTKSNIGDCSVSWYQQLPGATPRLLIYQNNNRPSGVSDRFSGSKSGTSASLAITGLQTEDEADYFCLSYDTSFSGWRFGGGTRLTVL
In experiment [2], B3 displayed an IC50 of neutralisation of kifunensine-treated JR-FL, TZM-bl cells of 4.34 µg/mL.

For the origin of these results see PMC6936856.
